From paper PMC10530723, “The Conserved Chromatin Remodeler SMARCAD1 Interacts with TFIIIC and Architectural Proteins in Human and Mouse” (Genes, 2023) come the findings set out here.

This assay deals with T1, His-SMARCAD1 (human, recombinant) (human, UniProt Q9H4L7 1-1026).
T1 construct: also called hSMARCAD1; His-tagged human SMARCAD1; source: insect cells (baculovirus), purified via a His-tag
T1 sequence (looked up): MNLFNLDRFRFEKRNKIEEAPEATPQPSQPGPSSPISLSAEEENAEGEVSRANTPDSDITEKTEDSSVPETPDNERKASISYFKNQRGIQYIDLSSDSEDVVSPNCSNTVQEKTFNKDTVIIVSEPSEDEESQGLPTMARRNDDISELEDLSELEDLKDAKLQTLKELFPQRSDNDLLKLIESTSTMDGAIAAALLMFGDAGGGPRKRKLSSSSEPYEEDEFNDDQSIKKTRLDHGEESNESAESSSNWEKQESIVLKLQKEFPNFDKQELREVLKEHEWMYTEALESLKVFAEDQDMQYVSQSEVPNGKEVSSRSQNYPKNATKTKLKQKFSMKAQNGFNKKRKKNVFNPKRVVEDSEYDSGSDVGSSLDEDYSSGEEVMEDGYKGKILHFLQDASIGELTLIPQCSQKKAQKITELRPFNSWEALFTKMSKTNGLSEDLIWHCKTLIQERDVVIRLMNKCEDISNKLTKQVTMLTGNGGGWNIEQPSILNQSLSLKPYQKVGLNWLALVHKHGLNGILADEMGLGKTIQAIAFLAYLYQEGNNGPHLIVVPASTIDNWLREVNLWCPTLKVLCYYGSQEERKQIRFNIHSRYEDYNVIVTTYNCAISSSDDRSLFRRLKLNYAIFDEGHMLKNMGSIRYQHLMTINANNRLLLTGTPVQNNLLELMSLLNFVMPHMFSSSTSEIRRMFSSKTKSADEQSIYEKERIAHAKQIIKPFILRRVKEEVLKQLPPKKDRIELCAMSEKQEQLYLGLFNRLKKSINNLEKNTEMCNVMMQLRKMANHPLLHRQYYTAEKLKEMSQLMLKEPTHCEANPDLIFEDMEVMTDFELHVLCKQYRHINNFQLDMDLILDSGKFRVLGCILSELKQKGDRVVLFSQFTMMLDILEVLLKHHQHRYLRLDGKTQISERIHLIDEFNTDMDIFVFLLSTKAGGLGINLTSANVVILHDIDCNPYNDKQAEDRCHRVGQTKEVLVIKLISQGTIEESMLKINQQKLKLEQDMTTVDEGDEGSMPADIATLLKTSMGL
The assay is described as follows: pull-down; GST fusion proteins on glutathione Sepharose 4B beads (13 ug protein), 1 ug His-Smarcad1 in solution; 100 mM NaCl, 20 mM Hepes, 5% glycerol, 0.1% Triton; 1.5 h at 4 °C; bound protein detected by Western blot with anti-SMARCAD1. The following applies: both partners purified. Background: A western blot detects proteins with antibodies after separation by electrophoresis.

B1: GST-TFIIIC102 (human, full-length) (natural protein, UniProt Q9Y5Q9 1-886, looked up)
chain: MSGFSPELIDYLEGKISFEEFERRREERKTREKKSLQEKGKLSAEENPDDSEVPSSSGINSTKSQDKDVNEGETSDGVRKSVHKVFASMLGENEDDEEEEEEEEEEEEEEETPEQPTAGDVFVLEMVLNRETKKMMKEKRPRSKLPRALRGLMGEANIRFARGEREEAILMCMEIIRQAPLAYEPFSTLAMIYEDQGDMEKSLQFELIAAHLNPSDTEEWVRLAEMSLEQDNIKQAIFCYTKALKYEPTNVRYLWERSSLYEQMGDHKMAMDGYRRILNLLSPSDGERFMQLARDMAKSYYEANDVTSAINIIDEAFSKHQGLVSMEDVNIAAELYISNKQYDKALEIITDFSGIVLEKKTSEEGTSEENKAPENVTCTIPDGVPIDITVKLMVCLVHLNILEPLNPLLTTLVEQNPEDMGDLYLDVAEAFLDVGEYNSALPLLSALVCSERYNLAVVWLRHAECLKALGYMERAAESYGKVVDLAPLHLDARISLSTLQQQLGQPEKALEALEPMYDPDTLAQDANAAQQELKLLLHRSTLLFSQGKMYGYVDTLLTMLAMLLKVAMNRAQVCLISSSKSGERHLYLIKVSRDKISDSNDQESANCDAKAIFAVLTSVLTKDDWWNLLLKAIYSLCDLSRFQEAELLVDSSLEYYSFYDDRQKRKELEYFGLSAAILDKNFRKAYNYIRIMVMENVNKPQLWNIFNQVTMHSQDVRHHRFCLRLMLKNPENHALCVLNGHNAFVSGSFKHALGQYVQAFRTHPDEPLYSFCIGLTFIHMASQKYVLRRHALIVQGFSFLNRYLSLRGPCQESFYNLGRGLHQLGLIHLAIHYYQKALELPPLVVEGIELDQLDLRRDIAYNLSLIYQSSGNTGMAQTLLYTYCSI
notes: TFIIIC102, human, full-length, cDNA from OriGene (RC208122) cloned into pGEX-6P-1 (BamH1/Not1); pGEX-6P-1 places GST at the N-terminus (surmised from the vector; the reverse primer carries the stop codon); also called hTFIIIC102; human TFIIIC102 GST-fusion protein; source: E. coli, purified (glutathione Sepharose 4B beads)
Take B1: the binding result is recorded as “binds”.
